Test results: the supplement of paper PMC7877785
± gives the uncertainty stated by the source.

Assay: self-splicing fitness, log relative to wild type (ln ratio); higher = more splicing; Tetrahymena group I intron in knt gene, E. coli kanamycin selection, DiMSum; sequences stand for … in CUCUCU…GGAGGGAAAAGUUAUCAGGCAUGCACCUGGUAGCUAGUCUUUAAACCAAUAGAUUGCAUCGGUUUAAAAGGCAAGACCGUCAAAUUGCGGGAAAGGGGUCAACAGCCGUUCAGUACCAAGUCUCAGGGGAAACUUUGAGAUGGCCUUGCAAAGGGUAUGGUAAUAAGCUGACGGACAUGGUCCUAACCACGCAGCCAAGUCCUAAGUCAACAGAUCUUCUGUUGAUAUGGAUGCAGUUCACAGACUAAAUGUCGGUCGGGGAAGAUGUAUUCUUCUCAUAAGAUAUAGUCGGACCUCUCCUUAAUGGGAGCUAGCGGAUGAAGUGAUGCAACACUGGAGCCGCUGGGAACUAAUUUGUAUGCGAAAGUAUAUUGAUUAGUUUUGGAGUACUCGUGGUCG
Method in brief: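 Colonies from six replicate transformations of E. coli BL21(DE3) were pooled and amplicon-sequenced on an Illumina HiSeq 2500. The library placed an intron with all eight P1ex-region nucleotides randomised inside the knt kanamycin-resistance gene on pET-22b(+), and cells grew overnight at 37°C or 30°C on LB agar with or without 25 μg/mL kanamycin (plus 100 μg/mL carbenicillin, 50 μM IPTG, 0.2% rhamnose). Fitness is the DiMSum error-weighted combination of wild-type-normalised replicate fold changes, kanamycin versus none.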

| Sequence | self-splicing fitness (ln) (30 °C) | self-splicing fitness (ln) (37 °C) |
| --- | --- | --- |
| AGUAAGCAAUAUUACGAGUG | -3.01 ± 0.27 | -3.04 ± 0.43 |
| AGUAAGCAAUAUUACGAUGC | -2.58 ± 0.19 | -1.67 ± 0.15 |
| AGUAAGCAAUAUUACGCAAA | -2.45 ± 0.35 | -1.46 ± 0.25 |
| AGUAAGCAAUAUUACGCCAG | -3.63 ± 0.33 | -1.58 ± 0.29 |
| AGUAAGCAAUAUUACGCCCU | -0.35 ± 0.17 | -0.62 ± 0.16 |
| AGUAAGCAAUAUUACGGAUA | -2.85 ± 0.28 | -1.69 ± 0.21 |
| AGUAAGCAAUAUUACGGGCA | -0.89 ± 0.15 | -0.468 ± 0.19 |
| AGUAAGCAAUAUUACGGUGC | -4.4 ± 0.46 | -1.37 ± 0.17 |
| AGUAAGCAAUAUUACGUAUU | -2.89 ± 0.12 | -3.05 ± 0.19 |
| AGUAAGCAAUAUUACGUCAU | -2.97 ± 0.23 | -2.12 ± 0.19 |
| AGUAAGCAAUAUUACGUGAA | -3.24 ± 0.15 | -1.68 ± 0.13 |
| AGUAAGCAAUAUUACGUGUA | -2.16 ± 0.12 | -1.8 ± 0.13 |
| AGUAAGCAAUAUUACGUUCC | -1.85 ± 0.16 | -0.345 ± 0.13 |
| AGUCAGCAAUAUUACGAAUG | -1.62 ± 0.09 | -0.853 ± 0.11 |
| AGUCAGCAAUAUUACGAGGC | -2.81 ± 0.31 | -0.606 ± 0.31 |
| AGUCAGCAAUAUUACGAUAG | -1.12 ± 0.14 | -2.32 ± 0.23 |
| AGUCAGCAAUAUUACGAUGC | -1.04 ± 0.097 | -0.00334 ± 0.11 |
| AGUCAGCAAUAUUACGCAAA | -1.62 ± 0.11 | -1.01 ± 0.15 |
| AGUCAGCAAUAUUACGCAAG | -2.69 ± 0.26 | -1.28 ± 0.29 |
| AGUCAGCAAUAUUACGCGCU | -3.02 ± 0.14 | -1.86 ± 0.21 |
| AGUCAGCAAUAUUACGCUAU | -0.623 ± 0.1 | -0.137 ± 0.11 |
| AGUCAGCAAUAUUACGCUGG | -3.87 ± 0.23 | -2.71 ± 0.23 |
| AGUCAGCAAUAUUACGCUUA | -0.891 ± 0.12 | 0.278 ± 0.14 |
| AGUCAGCAAUAUUACGCUUC | -2.35 ± 0.2 | -1.79 ± 0.21 |

| Sequence | self-splicing fitness (ln) (30 °C) | self-splicing fitness (ln) (37 °C) |
| --- | --- | --- |
| AGUCAGCAAUAUUACGGACU | -2.86 ± 0.27 | -2.27 ± 0.29 |
| AGUCAGCAAUAUUACGGAUG | -1.36 ± 0.054 | 0.106 ± 0.069 |
| AGUCAGCAAUAUUACGGGUC | -1.27 ± 0.11 | -1.43 ± 0.15 |
| AGUCAGCAAUAUUACGGUAG | -3.46 ± 0.15 | -2.76 ± 0.21 |
| AGUCAGCAAUAUUACGUAGC | -2.97 ± 0.13 | -0.778 ± 0.097 |
| AGUCAGCAAUAUUACGUCCG | -2.14 ± 0.12 | -1.29 ± 0.18 |
| AGUCAGCAAUAUUACGUUAU | -1.25 ± 0.099 | -0.0312 ± 0.11 |
| AGUCAGCAAUAUUACGUUCC | -1.13 ± 0.1 | -0.187 ± 0.12 |
| AGUGAGCAAUAUUACGAAUG | -3.4 ± 0.36 | -1.58 ± 0.3 |
| AGUGAGCAAUAUUACGAGAG | -2.1 ± 0.26 | -2.36 ± 0.29 |
| AGUGAGCAAUAUUACGAGGA | -2.48 ± 0.32 | -3.09 ± 0.35 |
| AGUGAGCAAUAUUACGAGGG | -3.75 ± 0.24 | -2.13 ± 0.35 |
| AGUGAGCAAUAUUACGAUAC | -3.02 ± 0.22 | -2.47 ± 0.34 |
| AGUGAGCAAUAUUACGAUCA | -1.64 ± 0.13 | -0.675 ± 0.16 |
| AGUGAGCAAUAUUACGAUGA | -4.11 ± 0.39 | -2.24 ± 0.3 |
| AGUGAGCAAUAUUACGAUUC | -2.97 ± 0.28 | -1.27 ± 0.33 |
| AGUGAGCAAUAUUACGCAAG | -2.68 ± 0.22 | -2.98 ± 0.26 |
| AGUGAGCAAUAUUACGCAGG | – | -2.65 ± 0.48 |
| AGUGAGCAAUAUUACGCUCA | – | -2.13 ± 0.25 |
| AGUGAGCAAUAUUACGGCAA | -2.12 ± 0.21 | -0.889 ± 0.2 |
| AGUGAGCAAUAUUACGGGCG | -1.04 ± 0.19 | -0.922 ± 0.27 |
| AGUGAGCAAUAUUACGGUCA | -2.16 ± 0.19 | -0.354 ± 0.19 |
| AGUGAGCAAUAUUACGUCCA | -2.89 ± 0.36 | -1 ± 0.27 |
| AGUGAGCAAUAUUACGUCUG | -2.84 ± 0.34 | -2.07 ± 0.38 |

| Sequence | self-splicing fitness (ln) (30 °C) | self-splicing fitness (ln) (37 °C) |
| --- | --- | --- |
| AGUGAGCAAUAUUACGUUAA | -2.56 ± 0.31 | -1.57 ± 0.25 |
| AGUGAGCAAUAUUACGUUAU | -3.13 ± 0.17 | -3.08 ± 0.27 |
| AGUGAGCAAUAUUACGUUGU | -4.07 ± 0.19 | -1.78 ± 0.14 |
| AGUUAGCAAUAUUACGAAGC | -3.59 ± 0.48 | -1.98 ± 0.48 |
| AGUUAGCAAUAUUACGAAGU | -2.91 ± 0.17 | -1.47 ± 0.15 |
| AGUUAGCAAUAUUACGACGA | -0.101 ± 0.18 | -0.368 ± 0.14 |
| AGUUAGCAAUAUUACGAGCG | -0.12 ± 0.1 | 0.237 ± 0.11 |
| AGUUAGCAAUAUUACGAGCU | -1.97 ± 0.15 | -0.796 ± 0.17 |
| AGUUAGCAAUAUUACGAGGA | -2.32 ± 0.26 | -2.43 ± 0.25 |
| AGUUAGCAAUAUUACGAUAC | -2.6 ± 0.25 | -1.51 ± 0.24 |
| AGUUAGCAAUAUUACGAUAG | -3.19 ± 0.29 | -1.77 ± 0.29 |
| AGUUAGCAAUAUUACGAUCA | -0.843 ± 0.13 | 0.619 ± 0.12 |
| AGUUAGCAAUAUUACGCCCC | -0.473 ± 0.23 | – |
| AGUUAGCAAUAUUACGCCCG | -1.52 ± 0.44 | 0.364 ± 0.45 |
| AGUUAGCAAUAUUACGCGCA | -0.182 ± 0.14 | 0.341 ± 0.21 |
| AGUUAGCAAUAUUACGCGGU | -2.58 ± 0.14 | -1.93 ± 0.18 |
| AGUUAGCAAUAUUACGCUAA | -3.11 ± 0.43 | -2.29 ± 0.41 |
| AGUUAGCAAUAUUACGGAAC | – | -2.72 ± 0.38 |
| AGUUAGCAAUAUUACGGCAU | -0.297 ± 0.063 | -0.161 ± 0.085 |
| AGUUAGCAAUAUUACGGCCG | -0.855 ± 0.21 | -0.628 ± 0.3 |
| AGUUAGCAAUAUUACGGCUG | -0.983 ± 0.085 | -0.309 ± 0.11 |
| AGUUAGCAAUAUUACGGGAU | -3.18 ± 0.26 | -1.46 ± 0.22 |
| AGUUAGCAAUAUUACGGUUG | -3.09 ± 0.24 | -1.99 ± 0.22 |
| AGUUAGCAAUAUUACGUACA | -1.06 ± 0.09 | -0.266 ± 0.12 |

| Sequence | self-splicing fitness (ln) (30 °C) | self-splicing fitness (ln) (37 °C) |
| --- | --- | --- |
| AGUUAGCAAUAUUACGUAGA | -3.12 ± 0.14 | -1.59 ± 0.14 |
| AGUUAGCAAUAUUACGUAUA | -3.01 ± 0.19 | -1.57 ± 0.16 |
| AGUUAGCAAUAUUACGUCAC | – | -0.825 ± 0.31 |
| AGUUAGCAAUAUUACGUCUA | -0.594 ± 0.12 | -0.0617 ± 0.1 |
| AGUUAGCAAUAUUACGUGAA | -2.78 ± 0.15 | -2.31 ± 0.2 |
| AGUUAGCAAUAUUACGUGAG | -1.53 ± 0.12 | -1.86 ± 0.14 |
| AGUUAGCAAUAUUACGUUAA | -3.56 ± 0.38 | -1.48 ± 0.26 |
| AGUUAGCAAUAUUACGUUAG | -3.45 ± 0.23 | -2.72 ± 0.3 |
| AGUUAGCAAUAUUACGUUGG | -2.67 ± 0.19 | -2.3 ± 0.21 |
| AUAAAGCAAUAUUACGAAUU | -1.23 ± 0.064 | -0.731 ± 0.089 |
| AUAAAGCAAUAUUACGACAU | 0.424 ± 0.012 | 0.344 ± 0.032 |
| AUAAAGCAAUAUUACGACUA | 0.277 ± 0.083 | 0.129 ± 0.1 |
| AUAAAGCAAUAUUACGACUU | 0.0576 ± 0.088 | 0.686 ± 0.13 |
| AUAAAGCAAUAUUACGAGGC | -3.29 ± 0.17 | -2.7 ± 0.32 |
| AUAAAGCAAUAUUACGAGUG | -2.03 ± 0.1 | -1.16 ± 0.12 |
| AUAAAGCAAUAUUACGAUGA | -0.326 ± 0.083 | 0.153 ± 0.12 |
| AUAAAGCAAUAUUACGAUUU | 0.496 ± 0.082 | 0.827 ± 0.1 |
| AUAAAGCAAUAUUACGCCAG | -0.993 ± 0.12 | -0.785 ± 0.16 |
| AUAAAGCAAUAUUACGCCAU | -0.694 ± 0.095 | -0.176 ± 0.14 |
| AUAAAGCAAUAUUACGCCUU | -0.274 ± 0.094 | 0.0912 ± 0.12 |
| AUAAAGCAAUAUUACGCUUG | -0.77 ± 0.082 | -0.368 ± 0.11 |
| AUAAAGCAAUAUUACGGAAC | -2.45 ± 0.26 | -0.934 ± 0.19 |
| AUAAAGCAAUAUUACGGAGC | -2.79 ± 0.2 | -2.21 ± 0.22 |
| AUAAAGCAAUAUUACGGCAG | -0.699 ± 0.092 | -0.0772 ± 0.13 |
